Source: the DeepSol protein solubility set

assay: soluble on expression in E. coli; label from the status in PepcDB or PDB records

Sequence | soluble on expression in E. coli
GGGGGGMLNRVFLEGEIESSCWSVKKTGFLVTIKQMRFFGERLFTDYYVIYANGQLAYELEKHTKKYKTISIEGILRTYLERKSEIWKTTIEIVKIFNPKNEIVIDYKEI | soluble
MGSDKIHHHHHHMESIENSYGRLLLESQLPDSAKQLAQPLKSVVILRGKMICQRCHYQLDEEARLPSGAYYCRFCLVFGRNQSDKLLYAIPPMHFPKGNYLVWGGQLTAYQEMISQQLLINMQNQKTTLVHAVTGAGKTEMIYAAIEAVINTGGWVCIASPRVDVCVEVATRLSQAFSCSICLMHAESLPYQRAPIIVATTHQLLKFHKAFDLLIIDEVDAFPFVNNIQLHYAASQALKEGGAKILLTATSTRTLERKVNKGEVVKLTLARRFHNRPLVIPKFIRSFNLFKMIHRQKLPLKILKYLKKQRKTGYPLLIFLPTIIMAESVTAILKELLPAEQIACVSSQSQNRKEDITAFRQGKKTILITTSILERGVTFPQIDVFVLGSHHRVYSSQSLVQIAGRVGRSIDRPDGTLYFFHEGISKAMLLARKEIKEMNYKGYSHDLSTMSTN | not soluble
MAGILHNEGVKVAITTDHPVTRIQDLLICAGLAAKEGLGIEEGLKAITINPAEICNVANRVGSIEVNKDADIAIFDGNPMETFTKTMYTIINGEIVYSLKDLEHHHHHH | not soluble
GMIQVPASFDIQGHRGCRGLLPENTIAAFTKALLLGVTTLEFDLVISKDNRVVVSHDTFFHHEITMMVDGEDVTEANEKNFNLYAMNYADIKEIDVGMKTHPRFKSQKKVPAVKPLFRELIETAEKLSAKIQYNGEIKSTVEGDNIDHPNIALFCDLVVAEIKKAHITDRFTLQSFDVRALEYMHSQYPDIKLSYLVETKGTLKKQLEKLSFTPAVYSPDVTLVSKKDIDAAHKLGMRVIPWTVNTKEEIETLISLGVDGIITDYPDLFFEK | soluble
MSNKNYVFEEAKESLSSILFNGDSDRTEAGFFDGSVESWNDEDMIDGAKWVDRLVSEMTKAINIDDMRRRVAVILEALESIIKKNTNASKKLEYASMKESLQSLINDNQILKRVIANQHQRSSENEEKAKQVLHLRGVVGQYQEQVHKLELSNYAMKLHLQRSQQQQTSFSGNLPPDIY | soluble
MSRSPDAKEDPVECPLCMEPLEIDDINFFPCTCGYQICRFCWHRIRTDENGLCPACRKPYPEDPAVYKPLSQEELQRI | soluble
MKKHIKNLFLLAAICLTVACKEQLYTGLTEKEANQMQALLLSNDVNVSKEMDKSGNMTLSVEKEDFVRAITILNNNGFPKKKFADIEVIFPPSQLVASPSQENAKINYLKEQDIERLLSKIPGVIDCSVSLNVNNNESQPSSAAVLVISSPEVNLAPSVIQIKNLVKNSVDDLKLENISVVIKSSSGQDG | not soluble
MKKPVHDMRQHIIDVARSLMTNKGYTAVGLAEVLITAGVPKGSFYYYFKSKEEFGQALLEEYFSEYLGRVDALMARPGTGAERLLAYFMYWSETQGTDLPEGKCLVVKLGAEVCDLSEDMRCVLEVGTAKIIQRISACVEMGVSDGSIHPEGDHQGFAESLYQLWLGASLLVKVNKSTESFDKALNMTKRLLK | not soluble
MLYVILRGRLGNNLFQIATAASLTQNFIFCTVNKDQERQVLLYKDSFFKNIKVMKGVPDGIPYYKEPFHEFSRIPYEEGKDLIIDGYFQSEKYFKRSVVLDLYRITDELRKKIWNICGNILEKGETVSIHVRRGDYLKLPHALPFCGKSYYKNAIQYIGEDKIFIICSDDIDWCKKNFIGKRYYFIENTTPLLDLYIQSLCTHNIISNSSFSWWGAWLNENSNKIVIAPQMWFGISVKLGVSDLLPVSWVRLPNNYTLGRYCFALYKVVEDYLLNILRLIWKRKKNMLEHHHHHH | not soluble
MTTRRLALFDLDHTLLPLDSDYQWADFLARTGRAGDPAEARRRNDDLMERYNRGELTAEQAAEFMLGLLAAHSPVELAAWHEEFMRDVIRPSLTAQAVDVVRGHLAAGDLCALVTATNSFVTAPIARAFGVQHLIATDPEYRDGRYTGRIEGTPSFREGKVVRVNQWLAGMGLALGDFAESYFYSDSVNDVPLLEAVTRPIAANPSPGLREIAQARGWQVIDLFDHLEDAKS | not soluble
MGSDKIHHHHHHMNDWDRLYDRAETLLSRLEGLLRADAPEPEWNAAAFRWRKTGRSGFIEPVRYPDSITFEALQSIGRQKSLVDQNTRQFVRHHPANNVLLTGARGTGKSSLVKAMLNKYAADGLRLIEVEKHHLVDLPEIVEKVYRRPERFILYCDDLSFESGEPGYKALKVVLDGSIATASENVLVYATSNRRHLMPEYRVDNQDTRHTGGEIHPSEAVEEKTSLSERFGLWISFYPFDQEQYLDIVARWLAYFGIDKMDDSIREEALRWALGRGSRNGRVAWQFARDRAGREKAGQKPADKTEFRAEQ | not soluble
MTDRYTIHSQLEHLQSKYIGTGHADTTKWEWLVNQHRDSYCSYMGHFDLLNYFAIAENESKARVRFNLMEKMLQPCGPPADKPEEN | soluble
GPGSMSETIPVSVQCCEGRFELSVDSNHTLRDVLRQFKREVAALDPINLEEYVVNHEGKLLLDDSVTLQTVGVKKDSVFVLVRKACCPAASPEKDEDDM | soluble
VTDMNPDIEKDQTSDEVTVETTSVFRADFLSELDAPAQAGTESAVSGVEGLPPGSALLVVKRGPNAGSRFLLDQAITSAGRHPDSDIFLDDVTVSRRHAEFRLENNEFNVVDVGSLNGTYVNREPVDSAVLANGDEVQIGKFRLVFLTGPKQGEDDGSTGGP | soluble
MGSDKIHHHHHHMPCKNFFTTRPIMEEDCLWDKRRKIVDDLFRTVLRGNIAILLGPRRVGKTSVVNVISQKFAKRRNHHYIYFNFSRFIGARAISIADIEPKRTSLKLITTSKSYVISLKGISVEVRKTSIEEFTSDFSTLVRILSQNSERGLLIFDEAQVLARLKNLDFRGLIQEITDSYPNISMIFTGSMPGLLIEYLNPGPDKPNFMRASETFTLSRWNVEEGLEFLKKGFESYGISVRNELELERAVKELGGIPGFISYYGITVINLVRSGVPVEKALPRALEESKRYALEEWKKDLEAFLNVYNSPIYVEVMKVLASSYPTALKGAEVYRRMNRAPKRIQHIYKYLDVLEKVGFIRSEGGKYWIEDPILRELLT | not soluble
MGSDKIHHHHHHMRLFTSKSRYLIGVDIGTTSVKLVDIQRQQGVFHLRSYGTEILSEGIVIDKLIVDTEAVGNTIAGLARRCQAVGSSAATAVSGSAVITKIIDMDMVLNDVEREAQIRLDADQYIPYPLDDVNLDFEVLGPSLINDDMVQVLLAASRSENVDQRVDALTFGGLQTKVMDIESHAIERAFGLMVDSLPNLPELVALVDIGHNQTTLYVAKNGEFIYSREQLFGGSQLTEAIQNRYGLSAEEASISQREHALPEDYYPDVLTPFIENTIQQITRSLQFYFSSSQYSSIDHVVLAGGSSAIAGLAGMAQQRLGVPVSIANPFINMTIAPHIDHEQLAIDAPSLMAACGLALRSFD | not soluble
MQITTVNVNGIRAAVKQRSDANRGMLPWLEQCGSDVVLLQEVRASEKDSLTALAPALDAGWHYVGAPAAAKGRAGVGILSRQPLRDVQVGLEGFVDSGRYIQATLSDPDTGHDVVVASLYLPSGSADTDKQDEKYRFLDVFGPFLEQAAQDNPHMVVGGDWNICHRMQDLKNWKTNRKKSGFLPDERAFMDSVFGVFPDSESQVSDAGQWAGAVDYTSQQRRTPANDPKWFDVARRLAPEDAAYTWWTYRGQAFDTNAGWRIDYQAATSAMLERATRCWVDKAAAYDLRWSDHSPLTVVYS | soluble
MGCDFAIAKDFLLFFLTKPISMKLSVIIPIYNEIQTIEKILKKITTVMPEIPKEIVMVDDGSKDGTREWLVDTFGDPEQHPVLANVNLAGKFQCFPLDQSAETNGDRQGNSFVMPKEWEVKVIFHRQNQGKGGALHTAFAAATGDVLIIQDADLEYDPEDWGPMWKLIDGGWADVVYGSRFYGNPHRVLYFHHYLGNKLITSLIDLVCNINLTDIEVCYKMFRREVLEDLRLTCNDFGFEVEFTMKVTRSPKRWRIYEVGVAYYGRTFAEGKKINWRDGVKALGYIAKFWLTNALEHHHHHH | not soluble
DIQFSAGLFFQYNLSENFSLRIDPTFDRKGYQYKDITFTDNSGNILGTGKLYGHLDYITIPVLFKASVGNKVKYFVNAGPSIGLLLSETFIYDNPYGNGNQKTHNTNQYKKADAGITAGLGIAIPLGNAIALSFEVRNNVGLTNINKNSNANSAIHANTTSMLVGVAYKF | not soluble
MGSDKIHHHHHHMSYLTSSRCKLFYEDTAEQNPSLKDKPAILFVNGWAISSRYWRPTIDLLRQDFRCVTYDQSGTGKTSIDGCQPDLTIGGFADEAGALIEHLGLDKSRNLHIVGHSMGGMVATELCLRYRDALLSATILACGIFEETPFTSLGLMFLGGLIDVSMNFRNMFRVEPLRTLFIKRAATGHISKEYSDIIIEDFTTSDKAATNAVGHFSIDPEALRTYTRSVIEIASPVLCCVGMADHTIPPEGTITLFEKRKASATSPTRLVQFMHLGHLPMLEDTPCFVEQLKKHFDFAEHFYKKTQPATPLADRVQIQ | not soluble
MNERDIICAGCGVKIQTESKEMLGYTPPSALKRDVIICQRCFRMQHYNEVQDVSLTDDDFLKILHTIGERKALIVKLVDIFDFNGSWLPGLHRFVGGNDVLLIGNKVDLLPKSVNRNRMINWMRKSAKDLGLKPIDVALISGEKGIGVKEVASLIDRLRKGKDVYVVGATNVGKSTFINKMIQIFGGDEEQMITTSHFPGTTLDMIDIPLDDGKTLYDTPGIINHHQMAHYVAKNELKLITPKKEIKPKVFQLNEEQTLFFGGLARFDFVKGERTSFVCYVSNDLFIHRTKLEKADELYEKRLGDVLTPPEDPQHLPSLVKHEFTIRVQKVDVVISGLGWVTVNGTNVKVCAYAPEGVGVSIRESLILEHHHHHH | soluble
MKEFVHDYLAASVENEEEGGRMRWYPWHSAEYRFNHILNVVDIATKIARKEGANVDVTRVAALFHDIAKLEAEQDLHAEAGARIAREYLRAHGDYPESFIEQVCSAVEVHSYQGSLDDLPLEVQCLIEADILDKVGANGTALMLLRMGYESRTHMDAAEMVDRVIERGEDARERVQSDTAESLVHQRLKRTRWFQEWLTMEVAEMAVEDDLDDVATGMGDSLEHHHHHH | soluble
MGIMPRKVLAIKNFKERFDLLPKLKGVIAEKQPDILVVVGNILKNEALEKEYERAHLARREPNRKVIHENEHYIIETLDKFFREIGELGVKTFVVPGKNDAPLKIFLRAAYEAETAYPNIRVLHEGFAGWRGEFEVIGFGGLLTEHEFEEDFVLKYPRWYVEYILKFVNELKPRRLVTIFYTPPIGEFVDRTPEDPKHHGSAVVNTIIKSLNPEVAIVGHVGKGHELVGNTIVVNPGEFEEGRYAFLDLTQHKIKLEQFS | soluble
MGSDKIHHHHHHMITGFASSLYKKYEGSTFELLADTVFSALEMAGLDKNYVDGIYLTYLPGTFDGYANSHFFTNQVAQYLGIRPKFTQIFDYGGASALSMIHRAYKAIKAGEGETILCIVGGKATELRNKGVTVDAIDKAYPNVSLTPFDRLFRGLNDLNPVSDYALVANRHKYLFKSTDEQRALIAVRQRFNAMQNSKAMFKDPLTIEQVLKSPLVSYPLHLLEIVYPIDGFHVFVVSKRSSKSALTNIDILGYGEAHWPFMPTELDEIVYTPAVESSKGLLNGRIDAFELYDSFTITVMLQVEDIGLAEKGKGGSFFENHDTTFKGDVPINTGGGSLNTGQPAYMSGGVILEEALLQLNDMADGHQVKGTDVVFLNGIGGWNRSHSVSLVLGEKK | not soluble
MSLTHPDFTILYVDNPPASTQFYKALLGVDPVESSPTFSLFVLANGMKLGLWSRHTVEPKASVTGGGGELAFRVENDAQVDETFAGWKASGVAMLQQPAKMEFGYTFTAADPDSHRLRVYAFAGEGHHHHHH | not soluble
